What was measured:
[1] = biological target: T1, Tau-phospho-serine 396/404 peptide; assay: ratio of SPR KD values
T1 construct: Synthetic 30-residue peptide (Keck Foundation, Yale University) used for panning, ELISA and Biacore

[2] = biological target: T1, Tau-phospho-serine 396/404 peptide; assay: ratio of association/dissociation from SPR
[3] = biological target: T1, Tau-phospho-serine 396/404 peptide; assay: SPR (Biacore 2000), scFv immobilized, peptide as analyte
Description: (§1) Briefly, scFv235/antibody (10 μg/ml) was diluted in 10 mM sodium acetate, pH 5.0, and was immobilized on a separate CMS sensor chip with an amine coupling kit (7 min contact time at 5 μl/min flow rate). Unreacted surface-bound material was blocked with ethanolamine. One channel of each sensor chip, prepared in the same way without scFv235 or antibody, was used to monitor the nonspecific binding of the peptide. All measurements were done with HBS-EP buffer (10 mM HEPES at pH 7.4, 150 mM NaCl, 3.4 mM EDTA and 0.005% surfactant P20) at flow rate of 5 μl/min at 25° C. After each measurement, the chip surface was regenerated with 10 μl of a buffer containing 500 mM NaCl and 0.1M glycine HCl, pH 8.0. […] Table 5 and Table 6 summarize the kinetics and specificity of binding of the 6B2G12 antibody and scFv235.

[4] = biological target: T1, Tau-phospho-serine 396/404 peptide; assay: as above; remark: listed apart in the source
Description: as §1

[5] = biological target: T1, Tau-phospho-serine 396/404 peptide; assay: SPR (Biacore 2000), antibody immobilized, peptide as analyte
Description: as §1

[6] = biological target: T1, Tau-phospho-serine 396/404 peptide; assay: as above; remark: listed apart in the source
Description: as §1

Binder | selectivity for the phosphorylated peptide (SEQ ID NO:28) relative to the non-phosphorylated peptide (SEQ ID NO:27) [1] [fold] | fold lower affinity than antibody 6B2G12 [2] [fold] | Kd [3] [nM] | Kd [4] [nM] | koff [4] [s⁻¹] | kon [4] [M⁻¹ s⁻¹] | Kd [5] [nM] | Kd [6] [nM] | koff [6] [s⁻¹] | kon [6] [M⁻¹ s⁻¹]
scFv235 (scFv, not shown: small tags and cut ends, Made in E. coli from the phage display library of hybridoma 6B2G12; also called the scFv; His-tagged scFv235) scFv: ELDVVMTQTPLTLSVTIGQPASISCKSSQSLLYSNGKTYLNWLLQRPGQSPKRLIYLVSKLDSGVPDRFTGSGSGTDFTLKISRVEAEDLGVYYCVQGTHSPLTFGAGTKLELKSSGGGGSGGGGGGSSRSSLEVQLQQSGPELVKPGASVKISCKTSEYTFTEYTKHWVKQSHGKSLEWIGSINPNNGDTYYNQKFTDKATLTVDKSSTTASMELRSLTFEDSAVYYCAMGDSAWFAYWGQGTLVTVSA | 3900 | ~2510 | 1040 | 994 | 0.0039 | 3930 |  |  |  | 
antibody 6B2G12 (antibody, V domains shown, Monoclonal antibody from hybridoma clone 6B2G12, whole antibody (about 150 kDa); also called parent antibody; parental antibody) VH: EVQLQQSGPELVKPGASVKISCKTSEYTFTEYTKHWVKQSHGKSLEWIGSINPNNGDTYYNQKFTDKATLTVDKSSTTASMELRSLTFEDSAVYYCAMGDSAWFAYWGQGTLVTVS VL: not shown |  |  |  |  |  |  | 0.395 | 0.395 | 0.00146 | 3.69e+06
